PMC12416549 (2024)

Molecular target: T1, TNFR1 (Homo sapiens, UniProt P19438)
T1 chain: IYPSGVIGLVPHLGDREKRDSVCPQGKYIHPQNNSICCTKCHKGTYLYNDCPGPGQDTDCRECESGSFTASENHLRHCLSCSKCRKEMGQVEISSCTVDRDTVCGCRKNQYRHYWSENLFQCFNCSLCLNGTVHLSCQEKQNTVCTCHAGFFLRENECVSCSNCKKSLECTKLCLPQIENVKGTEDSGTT
Assay: yeast display SC50

B1: K33W (designed binder)
chain: SMEEEVEKAAKEYEKKKKEAIEKHLEKLKAKDWEAAERFLKELEEAAKEYAKDEAKTMSEEEAKRRAKKYKEKVLLSELSEEEQKEIKEAEEKLVRTILKYVEEAAK
apparent Kd (screen): 0.869 nM

B2: L75G (designed binder)
chain: SMEEEVEKAAKEYEKKKKEAIEKHLEKLKAKDKEAAERFLKELEEAAKEYAKDEAKTMSEEEAKRRAKKYKEKVGLSELSEEEQKEIKEAEEKLVRTILKYVEEAAK
apparent Kd (screen): 0.368 nM

B3: L94Y (designed binder)
chain: SMEEEVEKAAKEYEKKKKEAIEKHLEKLKAKDKEAAERFLKELEEAAKEYAKDEAKTMSEEEAKRRAKKYKEKVLLSELSEEEQKEIKEAEEKYVRTILKYVEEAAK
apparent Kd (screen): 0.446 nM

B4: E12L (designed binder)
chain: SMEEEVEKAAKLYEKKKKEAIEKHLEKLKAKDKEAAERFLKELEEAAKEYAKDEAKTMSEEEAKRRAKKYKEKVLLSELSEEEQKEIKEAEEKLVRTILKYVEEAAK
apparent Kd (screen): 0.49 nM

B5: Y13K (designed binder)
chain: SMEEEVEKAAKEKEKKKKEAIEKHLEKLKAKDKEAAERFLKELEEAAKEYAKDEAKTMSEEEAKRRAKKYKEKVLLSELSEEEQKEIKEAEEKLVRTILKYVEEAAK
apparent Kd (screen): 7.07 nM

B6: E83D (designed binder)
chain: SMEEEVEKAAKEYEKKKKEAIEKHLEKLKAKDKEAAERFLKELEEAAKEYAKDEAKTMSEEEAKRRAKKYKEKVLLSELSEEDQKEIKEAEEKLVRTILKYVEEAAK
apparent Kd (screen): 1.16 nM

B7: R96L (designed binder)
chain: SMEEEVEKAAKEYEKKKKEAIEKHLEKLKAKDKEAAERFLKELEEAAKEYAKDEAKTMSEEEAKRRAKKYKEKVLLSELSEEEQKEIKEAEEKLVLTILKYVEEAAK
apparent Kd (screen): 0.718 nM

B8: T57H (designed binder)
chain: SMEEEVEKAAKEYEKKKKEAIEKHLEKLKAKDKEAAERFLKELEEAAKEYAKDEAKHMSEEEAKRRAKKYKEKVLLSELSEEEQKEIKEAEEKLVRTILKYVEEAAK
apparent Kd (screen): 0.277 nM

B9: F39Y (designed binder)
chain: SMEEEVEKAAKEYEKKKKEAIEKHLEKLKAKDKEAAERYLKELEEAAKEYAKDEAKTMSEEEAKRRAKKYKEKVLLSELSEEEQKEIKEAEEKLVRTILKYVEEAAK
apparent Kd (screen): 1.4 nM

B10: K27Y (designed binder)
chain: SMEEEVEKAAKEYEKKKKEAIEKHLEYLKAKDKEAAERFLKELEEAAKEYAKDEAKTMSEEEAKRRAKKYKEKVLLSELSEEEQKEIKEAEEKLVRTILKYVEEAAK
apparent Kd (screen): 0.593 nM

B11: A46H (designed binder)
chain: SMEEEVEKAAKEYEKKKKEAIEKHLEKLKAKDKEAAERFLKELEEHAKEYAKDEAKTMSEEEAKRRAKKYKEKVLLSELSEEEQKEIKEAEEKLVRTILKYVEEAAK
apparent Kd (screen): 1.16 nM

B12: S77M (designed binder)
chain: SMEEEVEKAAKEYEKKKKEAIEKHLEKLKAKDKEAAERFLKELEEAAKEYAKDEAKTMSEEEAKRRAKKYKEKVLLMELSEEEQKEIKEAEEKLVRTILKYVEEAAK
apparent Kd (screen): 1.4 nM

B13: V6R (designed binder)
chain: SMEEEREKAAKEYEKKKKEAIEKHLEKLKAKDKEAAERFLKELEEAAKEYAKDEAKTMSEEEAKRRAKKYKEKVLLSELSEEEQKEIKEAEEKLVRTILKYVEEAAK
apparent Kd (screen): 0.653 nM

B14: E19G (designed binder)
chain: SMEEEVEKAAKEYEKKKKGAIEKHLEKLKAKDKEAAERFLKELEEAAKEYAKDEAKTMSEEEAKRRAKKYKEKVLLSELSEEEQKEIKEAEEKLVRTILKYVEEAAK
apparent Kd (screen): 0.49 nM

B15: A20Y (designed binder)
chain: SMEEEVEKAAKEYEKKKKEYIEKHLEKLKAKDKEAAERFLKELEEAAKEYAKDEAKTMSEEEAKRRAKKYKEKVLLSELSEEEQKEIKEAEEKLVRTILKYVEEAAK
apparent Kd (screen): 0.446 nM

B16: R96W (designed binder)
chain: SMEEEVEKAAKEYEKKKKEAIEKHLEKLKAKDKEAAERFLKELEEAAKEYAKDEAKTMSEEEAKRRAKKYKEKVLLSELSEEEQKEIKEAEEKLVWTILKYVEEAAK
apparent Kd (screen): 2.05 nM

B17: K71V (designed binder)
chain: SMEEEVEKAAKEYEKKKKEAIEKHLEKLKAKDKEAAERFLKELEEAAKEYAKDEAKTMSEEEAKRRAKKYVEKVLLSELSEEEQKEIKEAEEKLVRTILKYVEEAAK
apparent Kd (screen): 0.446 nM

B18: F39R (designed binder)
chain: SMEEEVEKAAKEYEKKKKEAIEKHLEKLKAKDKEAAERRLKELEEAAKEYAKDEAKTMSEEEAKRRAKKYKEKVLLSELSEEEQKEIKEAEEKLVRTILKYVEEAAK
apparent Kd (screen): 5.84 nM

B19: Y13R (designed binder)
chain: SMEEEVEKAAKEREKKKKEAIEKHLEKLKAKDKEAAERFLKELEEAAKEYAKDEAKTMSEEEAKRRAKKYKEKVLLSELSEEEQKEIKEAEEKLVRTILKYVEEAAK
apparent Kd (screen): 12.5 nM

B20: K31D (designed binder)
chain: SMEEEVEKAAKEYEKKKKEAIEKHLEKLKADDKEAAERFLKELEEAAKEYAKDEAKTMSEEEAKRRAKKYKEKVLLSELSEEEQKEIKEAEEKLVRTILKYVEEAAK
apparent Kd (screen): 0.956 nM

B21: L79Q (designed binder)
chain: SMEEEVEKAAKEYEKKKKEAIEKHLEKLKAKDKEAAERFLKELEEAAKEYAKDEAKTMSEEEAKRRAKKYKEKVLLSEQSEEEQKEIKEAEEKLVRTILKYVEEAAK
apparent Kd (screen): 2.48 nM

B22: E37W (designed binder)
chain: SMEEEVEKAAKEYEKKKKEAIEKHLEKLKAKDKEAAWRFLKELEEAAKEYAKDEAKTMSEEEAKRRAKKYKEKVLLSELSEEEQKEIKEAEEKLVRTILKYVEEAAK
apparent Kd (screen): 0.49 nM

B23: A35I (designed binder)
chain: SMEEEVEKAAKEYEKKKKEAIEKHLEKLKAKDKEIAERFLKELEEAAKEYAKDEAKTMSEEEAKRRAKKYKEKVLLSELSEEEQKEIKEAEEKLVRTILKYVEEAAK
apparent Kd (screen): 0.539 nM

B24: E26W (designed binder)
chain: SMEEEVEKAAKEYEKKKKEAIEKHLWKLKAKDKEAAERFLKELEEAAKEYAKDEAKTMSEEEAKRRAKKYKEKVLLSELSEEEQKEIKEAEEKLVRTILKYVEEAAK
apparent Kd (screen): 1.05 nM

B25: L25Q (designed binder)
chain: SMEEEVEKAAKEYEKKKKEAIEKHQEKLKAKDKEAAERFLKELEEAAKEYAKDEAKTMSEEEAKRRAKKYKEKVLLSELSEEEQKEIKEAEEKLVRTILKYVEEAAK
apparent Kd (screen): 1.54 nM

B26: Q84I (designed binder)
chain: SMEEEVEKAAKEYEKKKKEAIEKHLEKLKAKDKEAAERFLKELEEAAKEYAKDEAKTMSEEEAKRRAKKYKEKVLLSELSEEEIKEIKEAEEKLVRTILKYVEEAAK
apparent Kd (screen): 2.73 nM

B27: T97I (designed binder)
chain: SMEEEVEKAAKEYEKKKKEAIEKHLEKLKAKDKEAAERFLKELEEAAKEYAKDEAKTMSEEEAKRRAKKYKEKVLLSELSEEEQKEIKEAEEKLVRIILKYVEEAAK
apparent Kd (screen): 2.05 nM

B28: A55R (designed binder)
chain: SMEEEVEKAAKEYEKKKKEAIEKHLEKLKAKDKEAAERFLKELEEAAKEYAKDERKTMSEEEAKRRAKKYKEKVLLSELSEEEQKEIKEAEEKLVRTILKYVEEAAK
apparent Kd (screen): 1.05 nM

B29: E44M (designed binder)
chain: SMEEEVEKAAKEYEKKKKEAIEKHLEKLKAKDKEAAERFLKELMEAAKEYAKDEAKTMSEEEAKRRAKKYKEKVLLSELSEEEQKEIKEAEEKLVRTILKYVEEAAK
apparent Kd (screen): 0.956 nM

B30: K11L (designed binder)
chain: SMEEEVEKAALEYEKKKKEAIEKHLEKLKAKDKEAAERFLKELEEAAKEYAKDEAKTMSEEEAKRRAKKYKEKVLLSELSEEEQKEIKEAEEKLVRTILKYVEEAAK
apparent Kd (screen): 0.49 nM

B31: K93V (designed binder)
chain: SMEEEVEKAAKEYEKKKKEAIEKHLEKLKAKDKEAAERFLKELEEAAKEYAKDEAKTMSEEEAKRRAKKYKEKVLLSELSEEEQKEIKEAEEVLVRTILKYVEEAAK
apparent Kd (screen): 1.16 nM

B32: E78Y (designed binder)
chain: SMEEEVEKAAKEYEKKKKEAIEKHLEKLKAKDKEAAERFLKELEEAAKEYAKDEAKTMSEEEAKRRAKKYKEKVLLSYLSEEEQKEIKEAEEKLVRTILKYVEEAAK
apparent Kd (screen): 0.446 nM

B33: E26M (designed binder)
chain: SMEEEVEKAAKEYEKKKKEAIEKHLMKLKAKDKEAAERFLKELEEAAKEYAKDEAKTMSEEEAKRRAKKYKEKVLLSELSEEEQKEIKEAEEKLVRTILKYVEEAAK
apparent Kd (screen): 0.539 nM

B34: L76C (designed binder)
chain: SMEEEVEKAAKEYEKKKKEAIEKHLEKLKAKDKEAAERFLKELEEAAKEYAKDEAKTMSEEEAKRRAKKYKEKVLCSELSEEEQKEIKEAEEKLVRTILKYVEEAAK
apparent Kd (screen): 3 nM

B35: E12F (designed binder)
chain: SMEEEVEKAAKFYEKKKKEAIEKHLEKLKAKDKEAAERFLKELEEAAKEYAKDEAKTMSEEEAKRRAKKYKEKVLLSELSEEEQKEIKEAEEKLVRTILKYVEEAAK
apparent Kd (screen): 0.539 nM
